Results taken from patent US10208288B2, “Differentiation of human embryonic stem cells into pancreatic endocrine cells” (Janssen Biotech, Inc., priority 2012, dated 2019).

System: cells of the human embryonic stem cell line H1 differentiated to stage 5
Test: Real-time PCR of pancreatic endoderm/endocrine genes after factors spiked into stage 5 media
Format: cell-based
Conditions: for expression of hormones / mRNA expression of NKX6.1: Semaphorin 3a 50 ng/ml; for expression of hormones: Epigen 20 ng/ml at S5, compared to untreated cultures; for mRNA expression of NKX6.1 / mRNA expression of insulin: factor spiked at day 1 of stage 5, mRNA at day 3 of S5, vs control cultures, Table I: Ephrin-A4 100 ng/ml; for mRNA expression of NKX6.1: Epigen 20 ng/ml, FIG. 1F; for expression of somatostatin / expression of ghrelin / expression of glucagon: 20 ng/ml at S5, mRNA at day 3 of S5, vs control; for expression of somatostatin: FIG. 1B; for expression of ghrelin: FIG. 1C; for expression of glucagon: FIG. 1D; for mRNA expression of insulin: Activin A and Activin C 20 ng/ml, FIG. 1A
Method: Cells of the human embryonic stem cell line H1 (hESC H1, passage 40) were seeded as single cells at 1×10^5 cells/cm^2 on MATRIGEL™ (1:30 dilution; BD Biosciences, NJ)-coated dishes in mTeSR®1 media (StemCell Technologies, Vancouver, Canada) supplemented with 10 μM of Y27632 (Rock inhibitor, Catalog No. Y0503, SigmaAldrich, St. Louis, Mo.). Forty-eight hours post seeding, cultures were washed in incomplete PBS (phosphate buffered saline without Mg or Ca). Cultures were differentiated into pancreatic endoderm/endocrine lineages as follows: • a) Stage 1 (Definitive Endoderm (DE)—3 days): Cells were cultured for one day in stage 1 media: MCDB-131 medium (Catalog No. 10372-019, Invitrogen, Carlsbad, Calif.) supplemented with 0.1% fatty acid-free BSA (Catalog No. 68700, Proliant, Ankeny, Iowa), 0.0012 g/ml sodium bicarbonate (Catalog No. S3187, SigmaAldrich, St. Louis, Mo.), 1× GlutaMax™ (Invitrogen Catalog No. 35050-079), 4.5 mM D-Glucose (SigmaAldrich Catalog No. G8769), 100 ng/ml GDF8 (R&D Systems, Minneapolis, Minn.) and 1 μM MCX compound (a GSK3B inhibitor, 14-Prop-2-en-1-yl-3,5,7,14,17,23,27-heptaazatetracyclo [19.3.1.1˜2,6˜0.1˜8,12˜]heptacosa-1(25),2(27),3,5,8(26),9,11,21,23-nonaen-16-one, US Patent Application Publication No. 2010-0015711; incorporated herein by reference in its entirety). Cells were then cultured for additional day in MCDB-131 medium supplemented with 0.1% fatty acid-free BSA, 0.0012 g/ml sodium bicarbonate, 1× GlutaMax™, 4.5 mM D-Glucose, 100 ng/ml GDF8, and 0.1 μM MCX compound. Cells were then cultured for an additional day in MCDB-131 medium supplemented with 0.1% fatty acid-free BSA, 0.0012 g/ml sodium bicarbonate, 1× GlutaMax™, 4.5 mM D-Glucose, and 100 ng/ml GDF8, then • b) Stage 2 (Primitive gut tube—2 days): Cells were treated for two days with MCDB-131 medium supplemented with 0.1% fatty acid-free BSA; 0.0012 g/ml sodium bicarbonate; 1× GlutaMax™; 4.5 mM D-Glucose; 0.25 mM ascorbic acid (Sigma, St. Louis, Mo.) and 25 ng/ml FGF7 (R & D Systems, Minneapolis, Minn.), then • c) Stage 3 (Foregut—2 days): Cells were treated with MCDB-131 medium supplemented with a 1:200 dilution of ITS-X (Invitrogen); 4.5 mM Glucose; 1× GlutaMax™; 0.0017 g/ml sodium bicarbonate; 2% fatty acid-free BSA; 0.25 μM SANT-1 (Sigma, St. Louis, Mo.); 10 ng/ml of Activin-A (R & D Systems); 1 μM retinoic acid (RA; Sigma); 25 ng/ml FGF7; 0.25 mM ascorbic acid; 200 nM TPB (a PKC activator; Catalog No. 565740; EMD Chemicals, Gibstown, N.J.); 10 μM forskolin (FSK, Sigma), and 100 nM LDN (a BMP receptor inhibitor; Catalog No. 04-0019; Stemgent; San Diego, Calif.) for day 1. On day 2, cells were treated with MCDB-131 medium supplemented with a 1:200 dilution of ITS-X; 4.5 mM Glucose; 1× GlutaMax™; 0.0017 g/ml sodium bicarbonate; 2% fatty acid-free BSA; 0.25 μM SANT-1; 10 ng/ml of Activin A; 1 μM RA; 25 ng/ml FGF7; 0.25 mM ascorbic acid, 200 nM TPB, 10 μM forskolin and 10 nM LDN, then • d) Stage 4 (Pancreatic foregut precursor—2 days); Cells were treated with MCDB-131 medium supplemented with a 1:200 dilution of ITS-X; 4.5 mM Glucose; 1× GlutaMax™; 0.0015 g/ml sodium bicarbonate; 2% fatty acid-free BSA; 0.25 μM SANT-1; 50 nM RA; 50 nM LDN-193189; 10 μM forskolin; 0.25 mM ascorbic acid; and 100 nM TPB for two days, then • e) Stage 5 (Pancreatic endoderm/endocrine—3 days): Stage 4 cells were treated with MCDB-131 medium supplemented with a 1:200 dilution of ITS-X; 20 mM Glucose; 1× GlutaMax™; 0.0015 g/ml sodium bicarbonate; 2% fatty acid-free BSA; 0.25 μM SANT-1; 50 nM RA; 10 μM forskolin; 0.25 mM ascorbic acid for three days, with the addition of 100 nM ALk5 inhibitor SD-208 (disclosed in Molecular Pharmacology 2007, 72:152-161) for days 2-3 only.
At day 1 of stage 5, the factors listed in Table I, below, were spiked into the media and upon completion of S5 (day 3 of stage 5) mRNA was collected for PCR analysis of relevant pancreatic endoderm/endocrine genes. As a control, cultures were treated only with the S5 media listed above. […]

| Molecule | expression of hormones | mRNA expression of NKX6.1 | expression of somatostatin | expression of ghrelin | expression of glucagon | mRNA expression of insulin |
| --- | --- | --- | --- | --- | --- | --- |
| semaphorin 3a: protein factor, R & D Systems catalogue number 1250-S3-025 (protein, UniProt Q14563 21-771, looked up) Semaphorin-3A: NYQNGKNNVPRLKLSYKEMLESNNVITFNGLANSSSYHTFLLDEERSRLYVGAKDHIFSFDLVNIKDFQKIVWPVSYTRRDECKWAGKDILKECANFIKVLKAYNQTHLYACGTGAFHPICTYIEIGHHPEDNIFKLENSHFENGRGKSPYDPKLLTASLLIDGELYSGTAADFMGRDFAIFRTLGHHHPIRTEQHDSRWLNDPKFISAHLISESDNPEDDKVYFFFRENAIDGEHSGKATHARIGQICKNDFGGHRSLVNKWTTFLKARLICSVPGPNGIDTHFDELQDVFLMNFKDPKNPVVYGVFTTSSNIFKGSAVCMYSMSDVRRVFLGPYAHRDGPNYQWVPYQGRVPYPRPGTCPSKTFGGFDSTKDLPDDVITFARSHPAMYNPVFPMNNRPIVIKTDVNYQFTQIVVDRVDAEDGQYDVMFIGTDVGTVLKVVSIPKETWYDLEEVLLEEMTVFREPTAISAMELSTKQQQLYIGSTAGVAQLPLHRCDIYGKACAECCLARDPYCAWDGSACSRYFPTAKRRTRRQDIRNGDPLTHCSDLHHDNHHGHSPEERIIYGVENSSTFLECSPKSQRALVYWQFQRRNEERKEEIRVDDHIIRTDQGLLLRSLQQKDSGNYLCHAVEHGFIQTLLKVTLEVIDTEHLEELLHKDDDGDGSKTKEMSNSMTPSQKVWYRDFMQLINHPNLNTMDEFCEQVWKRDRKQRRQRPGHTPGNSNKWKHLQENKKGRNRRTHEFERAPRSV | not affecting | enhanced | – | – | – | – |
| Activin-A: protein factor, R & D Systems catalogue number 338-AC-010 (protein, UniProt P08476 311-426, looked up) Inhibin beta A chain: GLECDGKVNICCKKQFFVSFKDIGWNDWIIAPSGYHANYCEGECPSHIAGTSGSSLSFHSTVINHYRMRGHSPFANLKSCCVPTKLRPMSMLYYDDGQNIIKKDIQNMIVEECGCS | – | – | significantly enhanced | suppressing | suppressing | suppressing |
| Activin-C: protein factor, R & D Systems catalogue number 4879-AC-010 (protein, UniProt P55103 237-352, looked up) Inhibin beta C chain: GIDCQGGSRMCCRQEFFVDFREIGWHDWIIQPEGYAMNFCIGQCPLHIAGMPGIAASFHTAVLNLLKANTAAGTTGGGSCCVPTARRPLSLLYYDRDSNIVKTDIPDMVVEACGCS | – | – | significantly enhanced | suppressing | suppressing | suppressing |
| Epigen: protein factor, R & D Systems catalogue number 6629-EP-025 (protein, UniProt Q6UW88 23-154, looked up) Epigen: AAVTVTPPITAQQGNWTVNKTEADNIEGPIALKFSHLCLEDHNSYCINGACAFHHELEKAICRCFTGYTGERCEHLTLTSYAVDSYEKYIAIGIGVGLLLSGFLVIFYCYIRKRCLKLKSPYNVCSGERRPL | not affecting | enhanced | – | – | – | – |
